Assay results as given in PMC7460673, “Biochemical Characterization and Crystal Structure of a Novel NAD^+-Dependent Isocitrate Dehydrogenase from Phaeodactylum tricornutum” (International Journal of Molecular Sciences, 2020).
Values joined by “and” are separate entries in the source; they are usually repeats but may differ in a detail not shown here. Identical values can stand only once. Each block holds one molecule with its values, some of them ahead of it.

Tests used:
PtIDH1 [1] = target: T1, PtIDH1 (Phaeodactylum tricornutum, UniProt B7G620); assay: spectrophotometric NADH formation at […] nm; assay type: biochemical; details: read-out: Relative Activity (%) / PtIDH1
T1 construct: gene IDH1; hexamer also seen; C-terminal EF-hand domain

PtIDH1 [2] = target: T1, PtIDH1; assay: spectrophotometric NADH formation at […] nm; assay type: biochemical
[3] = target: Phaeodactylum tricornutum isocitrate dehydrogenase 1, mature (without mitochondrial-targeting peptide) (Phaeodactylum tricornutum); assay: SEC; Superdex 200 10/300 column calibrated with five standard proteins, 0.5 mL/min; 20 mM Tris, 300 mM NaCl, 5% glycerol, pH 7.5
purified protein [4] = substrate: NC(=O)c1ccc[n+]([C@@H]2O[C@H](COP(=O)([O-])OP(=O)(O)OC[C@H]3O[C@@H](n4cnc5c(N)ncnc54)[C@H](O)[C@@H]3O)[C@@H](O)[C@H]2O)c1; assay: purified protein; assay type: biochemical, Phaeodactylum tricornutum; details: 2 mM Mn2+, DL-isocitrate, 50 mM Tris pH 8.0, 25 °C, varied: cofactor
purified protein [5] = substrate: O=C(O)CC(C(=O)O)C(O)C(=O)O; assay: purified protein; assay type: biochemical, Phaeodactylum tricornutum; details: 2 mM Mn2+, NAD+, 50 mM Tris pH 8.0, 25 °C, varied as DL-isocitrate, cooperative, nH 1.43

Molecule: Nc1ncnc2c1ncn2[C@@H]1O[C@H](COP(=O)(O)OP(=O)(O)O)[C@@H](O)[C@H]1O [ADP]
activity at 1000 µM (PtIDH1 [1]): 86.63 ± 0.2%

Molecule: Nc1ncnc2c1ncn2[C@@H]1O[C@H](COP(=O)(O)OP(=O)(O)OP(=O)(O)O)[C@@H](O)[C@H]1O [ATP]
activity at 1000 µM (PtIDH1 [1]): 88.7 ± 0.8%

B1: PtIDH1 (Phaeodactylum tricornutum CCAP 1055/1) (protein)
chain: MLSVENKVVAPPMVYIAGEEMTRYACDLVVKSWLEPYFDLSQWEYFDLSCVNRDNTNDQVLRDAVTAGQRIGAIFKEPTITPSAIQKKAFGLKNSLGSPNGAMRAGWNGITISRDTIHIDGIELGYKRPVFFERHAVGGEYGAGWSKVGRGTLLTTYLPSDGRDPFVVDKRDLTDQHNVVVTYHNPYDNVEPLAHLFFQRCLDANITPYVVTKKTVFKWQEGFWAVMKDVFDEHYKSRFEEKGLLQACGGDLQHLISDAATMQLIRWTDGGFGMAAHNYDGDMLTDQIAQVHRSPGFITSNLVGKAPDGSLIKEFEASHGTVSDLWNDHLAGKETSLNPLGLVEAIVGALQHAAVLDAEKNPDDEHKVKARDQIFNFTTTLRTAMHNTFRYGQGTRDMSGPSGYTTEDFVRKVAWRLQRYLDAQYDEAPPPQLGEPSRKLRRNYDIDEEAINGLFQKYDKNGDGFIDFEEFTRMLVKMNLAPLLTKKEKEKKPDV
notes: hexamer also seen; C-terminal EF-hand domain
Km (purified protein [4]): 1132.5 ± 23.3 µM
kcat (purified protein [4]): 180.5 ± 6.8 s⁻¹
kcat/Km (purified protein [4]): 160000 M⁻¹ s⁻¹
K0.5 (purified protein [5]): 84.9 ± 5.2 µM

The next lines start with the values.

Ki (PtIDH1 [2]): 450 ± 80 µM
Molecule: NC(=O)C1=CN([C@@H]2O[C@H](COP(=O)(O)OP(=O)(O)OC[C@H]3O[C@@H](n4cnc5c(N)ncnc54)[C@H](O)[C@@H]3O)[C@@H](O)[C@H]2O)C=CC1 [NADH]

stoichiometry N [3]: 2 and 6
Molecule: Phaeodactylum tricornutum isocitrate dehydrogenase 1, mature (without mitochondrial-targeting peptide) (enzyme)
